From patent publication EP2019137A1

Biological target: wild-type SPW1 protein (SUPERWOMAN1, AP3-type class-B MADS-box protein of rice), M, I and K domains, yeast two-hybrid construct (rice (Oryza sativa))
Assay: yeast two-hybrid, LacZ reporter

- binding relative to OsMADS2wt with SPW1^wt (fold of OsMADS2wt-SPW1^wt binding): 0.5
Substance: V45T mutant-type protein of OsMADS2, M, I and K domains, yeast two-hybrid construct
